Here are results for one molecule from patent US8133978 (GlaxoSmithKline, dated 2012).

Assay [1] concerns the target T1, Human interleukin-18 (recombinant human IL-18) (human, UniProt Q14116 37-193).
T1 construct: also called hIL-18
T1 sequence: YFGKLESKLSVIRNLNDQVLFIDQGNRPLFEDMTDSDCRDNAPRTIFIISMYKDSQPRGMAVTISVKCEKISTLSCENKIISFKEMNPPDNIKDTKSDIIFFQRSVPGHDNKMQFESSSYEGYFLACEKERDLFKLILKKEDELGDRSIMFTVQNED
The assay can be described thus: ELISA, IL-18 bp-Fc coated at 0.5 ug/ml, human IL-18 added at 100 ng/ml, antibody titrated, detection anti-human kappa HRP, Abs 490 nm.

Assay [2] concerns the target T1, Human interleukin-18 (recombinant human …). The assay can be described thus: ELISA, human IL-18 captured by 16D10, antibody titrated. How it is done: ELISA with all nine humanised variants was carried out at least 6 times using various batches of purified antibody preparation. FIGS. 4A-4C show representative data from one experiment which generated the EC50 value ranking illustrated in Table 7. Human IL-18 was immobilized on Nunc Maxisorp 96-well plates using 2.5 µg/ml of 16D10 (non-neutralising mouse monoclonal antibody) to capture 5 ng/ml of recombinant human IL-18. Anti-IL-18 humanised antibodies were added at various dilutions. Bound humanised antibodies were detected using anti-human IgG Fc specific peroxidase conjugate (Sigma A0170).

The target in assay [3] is T2, Rhesus IL-18 (rhesus (rhesus/cynomolgus)).
T2 construct: also called Rhesus/Cynomolgus IL-18; rhesus/cynomolgus IL-18
Nature of the assay: SPR, Biacore 3000, antibody captured on Protein A, 25 C. How it is done: Biacore™ kinetic analysis of the humanised 2C10 antibodies was carried out on a Biacore™ 3000 instrument using Protein A capture of the antibodies in HBS-EP buffer (Biacore™). Briefly, Protein A was immobilised on a CM5 chip by primary amine coupling, using manufacturers recommended protocol, to densities around 2000-4000 resonance units (RU's). Humanised antibody was then passed over the Protein A surface and captured to levels of around 200-500 RU's, after a period of stabilisation, IL-18 (human or Rhesus) was passed over the captured antibody surface at defined concentrations and binding sensorgrams were obtained. […] All curves were double referenced against a buffer injection instead of IL-18 and the data was fitted to the 1:1 binding model using the global fit parameters in BiaEval 4.1. Off-rate ranking experiments were set up using the same Protein A capture method, however, only a single concentration of IL-18 was used (10 nM). Whilst the data was fitted using the same binding model as the kinetic analysis, since only one concentration of analyte was used on the off-rate is reported, this value is useful for ranking rather than giving an exact kinetic measurement and was used as a way of selecting which antibodies would be further investigated.
Based upon these observations selected antibodies were investigated in greater detail for binding to human and Rhesus IL-18 at 37° C. The data shown in Table 4b for human IL-18 is the mean (and standard deviation) of six separate determinations.

For assay [4], the target named is T1, Human interleukin-18 (recombinant human …). Nature of the assay: SPR, Biacore T100, antibody captured on Protein A, 20 C. The procedure: (§1) The methodology was basically the same as for the method used in Example 4a above; Protein A was immobilised on a CM5 chip at densities of between 2000-6000 RU's by primary amine coupling. Runs were carried out in HBS-EP (Biacore™). The anti-IL-18 antibodies were captured to densities of between 100-500 RUs, human IL-18 was passed over this captured surface at concentrations between 16-0.0625 nM, with 0 nM concentration (i.e., a buffer only injection of captured antibody) used for double referencing. Regeneration after each injection of IL-18 was by mild acidic elution using two injections of 10 mM glycine, pH1.5. […] The binding curves obtained were analysed using the analysis software inherent to the T100 machine using the 1:1 model of binding. Runs were carried out at the temperatures indicated.
(§2) This experiment was carried out using the above method at various temperatures. […] Table 5 details the kinetic values used to create these figures.

The target is the same in assay [5]. Nature of the assay: ELISA, antibody on plate, human IL-18 captured, detected by 16D10; 37 C, blocking buffer. How it is done: (§3) ELISA was carried out with the three Humanised H1 variants; H1L1, H1L2 and H1L3 to assess binding to human IL-18 at room temperature and at 37° C. in both human serum and in block solution (PBS 0.05% TWEEN with 1% BSA (w/v)). The Humanised antibody variants were immobilised on Nunc Maxisorp 96-well plates at 2.5 µg/ml. Capture of 5 ng/ml of recombinant human IL-18 was carried out either at room temperature or 37° C. in human serum or block solution. Anti-IL-18 mouse monoclonal antibody 16D10 was added. The bound mouse antibody was detected using anti-mouse kappa peroxidase conjugate (Serotec MCA 1291P). Representative EC50 values generated from the study data are illustrated in Table 9.

Assay [6] deals with T2, Rhesus IL-18. The assay can be described thus: Rhesus IL18 binding ELISA, antibody titrated, OD 490 nm.
Assay [7] has as its target T1, Human interleukin-18 (recombinant human …). Nature of the assay: SPR, Biacore T100, antibody captured on Protein A, 32 C. How it is done:
as §1, §2

Assay [8] shares this target. Nature of the assay: ELISA, antibody on plate, human IL-18 captured, detected by 16D10; room temperature, blocking buffer. The procedure:
as §3

B1: H1L2 humanised anti-IL-18 antibody (antibody, human IgG1, kappa, V domains shown)
VH: QVQLVQSGAEVKKPGASVKVSCKVSGEISTGYYFHWVRQAPGKGLEWMGRIDPEDDSTKYAERFKDRVTMTEDTSTDTAYMELSSLRSEDTAVYYCTTWRIYRDSSGRPFYVMDAWGQGTLVTVSS
VL: DIQMTQSPSSVSASVGDRVTITCLASEDIYTYLTWYQQKPGKAPKLLIYGANKLQDGVPSRFSGSGSGTDYTLTISSLQPEDFATYYCLQGSKFPLTFGQGTKLEIKR
notes: Human IgG1 / kappa
As for B1, the results for the “EC50 (read off the curve)” value (in assay [1]; with Rhesus IL-18 [6]) were approximately 0.04 µg/mL and approximately 0.03 µg/mL, respectively. Besides, the EC50 is 0.011 µg/mL in assay [2], 0.0034 µg/mL in assay [5] and 0.00355 µg/mL in assay [8]. The Kd came to 108 pM with Rhesus IL-18 [3], 8.9 pM in assay [4] and 18.9 pM in assay [7].
